This note sets out measurements from patent US20200199241A1 (Chugai, published 2020).

Changes are numbered by the printed parent chain.

The assay has as its target T1, soluble human FcRn complexed with β2-microglobulin (human, UniProt P61769 21-119, limits assumed).
T1 construct: also called hFcRn
Put plainly: Biacore SPR, pH 7.0.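 Also: test antibodies captured on a Protein L chip with human FcRn flowed over as analyte, KD obtained as the ratio of dissociation to association rate constants.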

The Kd is a measure of binding affinity in units of concentration. Read a low Kd as higher affinity.

T1 sequence (chain, as listed by the source limits assumed, chain 1 of 2): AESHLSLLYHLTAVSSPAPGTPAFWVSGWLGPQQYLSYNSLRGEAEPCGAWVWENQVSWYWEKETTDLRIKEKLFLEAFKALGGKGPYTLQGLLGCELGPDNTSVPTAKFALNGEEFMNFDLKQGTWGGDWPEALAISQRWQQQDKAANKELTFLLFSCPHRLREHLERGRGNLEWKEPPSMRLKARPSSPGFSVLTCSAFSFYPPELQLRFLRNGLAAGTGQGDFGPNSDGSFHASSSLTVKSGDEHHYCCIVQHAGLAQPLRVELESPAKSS
T1 sequence (P61769 21-119 limits assumed, chain 2 of 2): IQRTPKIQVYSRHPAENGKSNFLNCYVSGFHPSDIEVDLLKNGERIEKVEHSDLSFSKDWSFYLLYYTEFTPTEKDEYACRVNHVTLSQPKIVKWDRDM

B1: IgG1-F1314 (antibody)
heavy: QVQLQESGPGLVKPSETLSLTCAVSGHSISHDHAWSWVRQPPGEGLEWIGFISYSGITNYNPSLQGRVTISRDNSKNTLYLQMNSLRAEDTAVYYCARSLARTTAMDYWGEGTLVTVSSASTKGPSVFPLAPSSKSTSGGTAALGCLVKDYFPEPVTVSWNSGALTSGVHTFPAVLQSSGLYSLSSVVTVPSSSLGTQTYICNVNHKPSNTKVDKKVEPKSCDKTHTCPPCPAPELRGGPKVFLFPPKPKDTLYISRTPEVTCVVVDVSHEDPEVKFNWYVDGVEVHNAKTKPREEQYNSTYRVVSVLTVLHQDWLNGKEYKCKVSNKALPAPIEKTISKAKGQPREPQVYTLPPSRDELTKNQVSLTCLVKGFYPSDIAVEWESNGQPENNYKTTPPVLDSDGSFFLYSKLTVDKSRWQQGNVFSCSVMHEALDYHVTLKLLSLSP
light: not shown
notes: EU numbering; copies: 2 + 2
The molecule B1 came in with a Kd of 227 nM.

B2: IgG1-F1336 (antibody)
heavy: B1 heavy with G238R, T258E, D435H, L440K, L442D
light: not shown
notes: EU numbering; copies: 2 + 2
Turning to B2, binding was put at a Kd of 71.8 nM.

B3: IgG1-F1342 (antibody)
heavy: B1 heavy with T258E, D435H, V438T, L440K, L442E
light: not shown
notes: EU numbering; copies: 2 + 2
Regarding B3, the Kd stood at 251 nM.

B4: IgG1-F1362 (antibody)
heavy: B1 heavy with S256T, V438F, L440K, L442E
light: not shown
notes: EU numbering; copies: 2 + 2
As to B4, the equilibrium dissociation constant (Kd) is 141 nM.

B5: IgG1-F1322 (antibody)
heavy: B1 heavy with S256T, L440R, L442D
light: not shown
notes: EU numbering; copies: 2 + 2
In the case of B5, the Kd stood at 160 nM.

B6: IgG1-F1319 (antibody)
heavy: B1 heavy with R237L, K241S, L330Y, D435H, V438Y, L440Q, L442S
light: not shown
notes: EU numbering; copies: 2 + 2
Take B6: binding was put at a Kd of 267 nM.

B7: IgG1-F1360 (antibody)
heavy: B1 heavy with S256T, V438T, L440K, L442E
light: not shown
notes: EU numbering; copies: 2 + 2
As for B7, the equilibrium dissociation constant (Kd) worked out at 312 nM.

B8: IgG1-F1355 (antibody)
heavy: B1 heavy with V438F, L440R, L442E
light: not shown
notes: EU numbering; copies: 2 + 2
As for B8, the Kd was determined as 247 nM.

B9: IgG1-F1371 (antibody)
heavy: B1 heavy with S256T, T258E, L440R, L442E
light: not shown
notes: EU numbering; copies: 2 + 2
For B9, binding was characterised by a dissociation constant (Kd) of 109 nM.

B10: IgG1-F1330 (antibody)
heavy: B1 heavy with G238R, T258E, D435H, L440R, L442E
light: not shown
notes: EU numbering; copies: 2 + 2
As to B10, the Kd turned out to be 103 nM.

B11: IgG1-F1373 (antibody)
heavy: B1 heavy with S256T, T258E, V438F, L440K, L442E
light: not shown
notes: EU numbering; copies: 2 + 2
B11 gave a Kd of 86.7 nM.

B12: IgG1-F1375 (antibody)
heavy: B1 heavy with S256T, D435H, L440Q, L442S
light: not shown
notes: EU numbering; copies: 2 + 2
Molecule B12 gave a Kd of 103 nM.

B13: IgG1-F1352 (antibody)
heavy: B1 heavy with V438T, L440K, L442E
light: not shown
notes: EU numbering; copies: 2 + 2
In turn, B13 displayed a Kd of 393 nM.

B14: IgG1-F1361 (antibody)
heavy: B1 heavy with S256T, V438T, L440R, L442E
light: not shown
notes: EU numbering; copies: 2 + 2
In the case of B14, the Kd turned out to be 352 nM.

B15: IgG1-F1349 (antibody)
heavy: B1 heavy with D435H, V438T, L440R, L442E
light: not shown
notes: EU numbering; copies: 2 + 2
For the molecule B15, the Kd was 336 nM.

B16: IgG1-F1327 (antibody)
heavy: QVQLQESGPGLVKPSETLSLTCAVSGHSISHDHAWSWVRQPPGEGLEWIGFISYSGITNYNPSLQGRVTISRDNSKNTLYLQMNSLRAEDTAVYYCARSLARTTAMDYWGEGTLVTVSSASTKGPSVFPLAPSSKSTSGGTAALGCLVKDYFPEPVTVSWNSGALTSGVHTFPAVLQSSGLYSLSSVVTVPSSSLGTQTYICNVNHKPSNTKVDKKVEPKSCDKTHTCPPCPAPEAAGGPSVFLFPPKPKDVLYISRTPEVTCVVVDVSHEDPEVKFNWYVDGVEVHNAKTKPREEQYASTYRVVSVLQPLHADWLNGKEYKCKVSNKALPAPIEKTISKAKGQPREPQVYTLPPSRDELTKNQVSLTCLVKGFYPSDIAVEWESNGQPENNYKTTPPVLDSDGSFFLYSKLTVDKSRWQQGNVFSCSVMHEALHYHVTQKSLSLSP
light: not shown
notes: copies: 2 + 2
For the molecule B16, the Kd was determined as 14.1 nM.

B17: IgG1-F1350 (antibody)
heavy: B1 heavy with D435H, V438F, L440K, L442E
light: not shown
notes: EU numbering; copies: 2 + 2
B17 returned a Kd of 118 nM.

B18: IgG1-F1347 (antibody)
heavy: B1 heavy with G238R, T258E, D435H, L440K, L442E
light: not shown
notes: EU numbering; copies: 2 + 2
B18 returned a Kd of 71.4 nM.

B19: IgG1-F1357 (antibody)
heavy: B1 heavy with S256T, D435H, V438T, L440R, L442E
light: not shown
notes: EU numbering; copies: 2 + 2
B19 came in with a Kd of 281 nM.

B20: IgG1-F1323 (antibody)
heavy: B1 heavy with S256T, L440K, L442E
light: not shown
notes: EU numbering; copies: 2 + 2
Turning to B20, the affinity, expressed as Kd, was 149 nM.

B21: IgG1-F1346 (antibody)
heavy: B1 heavy with G238R, S256T, D435H, L440K, L442E
light: not shown
notes: EU numbering; copies: 2 + 2
Consider B21, for which the Kd came out at 85.9 nM.

B22: IgG1-F1348 (antibody)
heavy: B1 heavy with G238R, S256T, T258E, D435H, L440K, L442E
light: not shown
notes: EU numbering; copies: 2 + 2
Regarding B22, binding was put at a Kd of 55.2 nM.

B23: IgG1-F1372 (antibody)
heavy: B1 heavy with S256T, T258E, V438T, L440R, L442E
light: not shown
notes: EU numbering; copies: 2 + 2
With B23, the Kd is 228 nM.

B24: IgG1-F1367 (antibody)
heavy: B1 heavy with S256T, T258E, D435H, V438T, L440R, L442E
light: not shown
notes: EU numbering; copies: 2 + 2
The molecule B24 yielded a Kd of 179 nM.

B25: IgG1-F1365 (antibody)
heavy: B1 heavy with T258E, V438T, L440K, L442E
light: not shown
notes: EU numbering; copies: 2 + 2
B25 returned a Kd of 314 nM.

B26: IgG1-F1351 (antibody)
heavy: B1 heavy with D435H, V438F, L440R, L442E
light: not shown
notes: EU numbering; copies: 2 + 2
B26 displayed a Kd of 162 nM.

B27: IgG1-F1368 (antibody)
heavy: B1 heavy with S256T, T258E, D435H, V438F, L440K, L442E
light: not shown
notes: EU numbering; copies: 2 + 2
Consider B27, for which the Kd stood at 54.9 nM.

B28: IgG1-F1341 (antibody)
heavy: B1 heavy with S256T, D435H, V438T, L440K, L442E
light: not shown
notes: EU numbering; copies: 2 + 2
As for B28, the Kd is 322 nM.

B29: IgG1-F1370 (antibody)
heavy: B1 heavy with S256T, T258E, L440K, L442E
light: not shown
notes: EU numbering; copies: 2 + 2
B29: binding was put at a Kd of 91.4 nM.

B30: IgG1-F1363 (antibody)
heavy: B1 heavy with S256T, V438F, L440R, L442E
light: not shown
notes: EU numbering; copies: 2 + 2
As for B30, the Kd was 190 nM.

B31: IgG1-F1320 (antibody)
heavy: B1 heavy with S256T, D435H, L440R, L442D
light: not shown
notes: EU numbering; copies: 2 + 2
Molecule B31 came in with a Kd of 122 nM.

B32: IgG1-F1337 (antibody)
heavy: B1 heavy with T258E, D435H, L440K, L442E
light: not shown
notes: EU numbering; copies: 2 + 2
Molecule B32 showed a Kd of 74.1 nM.

B33: IgG1-F1358 (antibody)
heavy: B1 heavy with S256T, D435H, V438F, L440K, L442E
light: not shown
notes: EU numbering; copies: 2 + 2
In turn, B33 returned a Kd of 90.7 nM.

B34: IgG1-F1329 (antibody)
heavy: B1 heavy with G238R, S256T, D435H, L440R, L442E
light: not shown
notes: EU numbering; copies: 2 + 2
In turn, B34 came in with a Kd of 129 nM.

B35: IgG1-F1321 (antibody)
heavy: B1 heavy with S256T, D435H, L440K, L442E
light: not shown
notes: EU numbering; copies: 2 + 2
The molecule B35 yielded an equilibrium dissociation constant (Kd) of 103 nM.

B36: IgG1-F1366 (antibody)
heavy: B1 heavy with T258E, V438F, L440K, L442E
light: not shown
notes: EU numbering; copies: 2 + 2
Consider B36, for which the Kd turned out to be 117 nM.

B37: IgG1-F1353 (antibody)
heavy: B1 heavy with V438T, L440R, L442E
light: not shown
notes: EU numbering; copies: 2 + 2
For the molecule B37, binding was put at a Kd of 433 nM.

B38: IgG1-F1374 (antibody)
heavy: B1 heavy with S256T, T258E, V438F, L440R, L442E
light: not shown
notes: EU numbering; copies: 2 + 2
B38 returned a Kd of 120 nM.

B39: IgG1-F1328 (antibody)
heavy: B1 heavy with G238R, D435H, L440R, L442E
light: not shown
notes: EU numbering; copies: 2 + 2
With B39, binding was put at a Kd of 152 nM.

B40: IgG1-F1334 (antibody)
heavy: B1 heavy with G238R, D435H, L440K, L442D
light: not shown
notes: EU numbering; copies: 2 + 2
B40: the Kd was 104 nM.

B41: IgG1-F1338 (antibody)
heavy: B1 heavy with T258E, L440K, L442E
light: not shown
notes: EU numbering; copies: 2 + 2
As for B41, the affinity, expressed as Kd, was 104 nM.

B42: IgG1-F1345 (antibody)
heavy: B1 heavy with G238R, D435H, L440K, L442E
light: not shown
notes: EU numbering; copies: 2 + 2
Take B42: the Kd was 105 nM.

B43: IgG1-F1354 (antibody)
heavy: B1 heavy with V438F, L440K, L442E
light: not shown
notes: EU numbering; copies: 2 + 2
The molecule B43 came in with a Kd of 229 nM.

B44: IgG1-F1343 (antibody)
heavy: B1 heavy with S256T, T258E, D435H, V438T, L440K, L442E
light: not shown
notes: EU numbering; copies: 2 + 2
B44: the Kd amounted to 201 nM.

B45: IgG1-F1326 (antibody)
heavy: B16 heavy with A299N
light: not shown
notes: copies: 2 + 2
As for B45, the dissociation constant (Kd) stood at 10.9 nM.

B46: IgG1-F1359 (antibody)
heavy: B1 heavy with S256T, D435H, V438F, L440R, L442E
light: not shown
notes: EU numbering; copies: 2 + 2
For the molecule B46, the Kd came to 128 nM.

B47: IgG1-F1331 (antibody)
heavy: B1 heavy with G238R, S256T, T258E, D435H, L440R, L442E
light: not shown
notes: EU numbering; copies: 2 + 2
For the molecule B47, the equilibrium dissociation constant (Kd) stood at 77.5 nM.

B48: IgG1-F1344 (antibody)
heavy: B1 heavy with D435H, V438T, L440K, L442E
light: not shown
notes: EU numbering; copies: 2 + 2
Take B48: the Kd is 396 nM.
